# Reference: patent US20250361274A1, “PEPTIDE AND PEPTIDE-CONTAINING AGENT” (PEPTIDREAM INC., priority 2022, published 2025)
# Numbered stars: 1 amine (or outer) side, 2 acyl side, 3 side chain; on linkers, the order of the positions; unused ones are H or OH. Bridge positions count the residues as written; N and C are the ends. Square brackets hold non-standard residues; d marks the D form. Side chains are listed from the residue outwards. Ends that are not written are not given here. Peptide text beside a SMILES is read from it. * marks the point of attachment. X7 = O=C(O)CCC(NC(=O)CCNC(=O)[C@H](CSCC(=O)[*:1])CC(=O)[C@H](CO)N[*:2])C(=O)O; 3Pal(6-Ph) = N[C@@H](Cc1ccc(-c2ccccc2)nc1)C(=O)O; Phe(4-COOH) = N[C@@H](Cc1ccc(C(=O)O)cc1)C(=O)O; NMePhe(4-Me) = CN[C@@H](Cc1ccc(C)cc1)C(=O)O; Piperazinyl(4-CH2COOH) = O=C(O)CN1CCN(*)CC1; Bip = N[C@@H](Cc1ccc(-c2ccccc2)cc1)C(=O)O; Nle(6-COOH) = N[C@@H](CCCCC(=O)O)C(=O)O; X1 = N=C(CN)NCCC[C@H](N[*:1])C(=O)[*:2]; Phe(4-F) = N[C@@H](Cc1ccc(F)cc1)C(=O)O; cisHyp = O=C(O)[C@@H]1C[C@H](O)CN1; Hyp = O=C(O)[C@@H]1C[C@@H](O)CN1; NMeF = CN[C@@H](Cc1ccccc1)C(=O)O; Aad = N[C@@H](CCCC(=O)O)C(=O)O; Cha = N[C@@H](CC1CCCCC1)C(=O)O; Abu = CC[C@H](N)C(=O)O; CO = O=C([*:1])[*:2]; βAla = NCCC(=O)O
# Experiments:
# BMP4 = target: T1, BMP4 (Homo sapiens, UniProt P12644); test: BMP4 signal transduction inhibitory activity: SMAD1 phosphorylation by BMP4 stimulus, AlphaLISA SureFire, A549 cells; type: cell-based; details: for aLISA BMP4 (0.2 nM) % inh: BMP4 0.2 nM stimulus, peptide conc. in assay 0.2, 2, 20 nM
# T1 sequence (P12644 293-408): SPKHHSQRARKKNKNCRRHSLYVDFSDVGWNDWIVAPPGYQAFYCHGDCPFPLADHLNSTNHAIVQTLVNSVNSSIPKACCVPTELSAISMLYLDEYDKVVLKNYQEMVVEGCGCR
# BMP7 = target: T2, BMP7 (Homo sapiens, UniProt P18075); test: BMP7 signal transduction inhibitory activity: SMAD1 phosphorylation by BMP7 stimulus, A549 cells; type: cell-based; details: for aLISA BMP7 (10 nM) % inh: BMP7 10 nM stimulus, peptide conc. in assay 1, 10, 100 nM
# T2 sequence (P18075 293-431): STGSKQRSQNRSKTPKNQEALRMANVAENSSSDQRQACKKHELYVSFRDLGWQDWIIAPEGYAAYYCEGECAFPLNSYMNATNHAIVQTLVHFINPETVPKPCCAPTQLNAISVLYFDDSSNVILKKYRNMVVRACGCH
# Procedure, shortened: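 A549 cells were stimulated with 10 nM BMP7, and the read-out was SMAD1 phosphorylation. Peptides were tested at three concentrations spanning 1 to 1,000 nM, with sets depending on the peptide series. Some peptides were run in eight-point 1/3 dilutions starting from 100 nM or 1,000 nM, with recombinant human Noggin as positive control at matching concentrations.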
Compound,aLISA BMP4 (0.2 nM) % inh (BMP4),aLISA BMP7 (10 nM) % inh (BMP7),further results
410 (FG[NMeF]G[3Pal(6-Ph)]GDE[Cha][Aad][NMeF]L[Phe(4-COOH)]C-NH2; not fully specified) [compound 410],ND (the inhibitory activity was less than 30% at the maximum concentration evaluated),D (showed less than 30% of inhibitory activity in 10 nM-addition zone and showed 30% or more of inhibitory activity in 100 nM-addition zone),
411 (FG[NMeF]G[3Pal(6-Ph)]GDE[Cha][Aad][NMeF]L[Phe(4-COOH)]C[βAla][dE]) [compound 411],ND (the inhibitory activity was less than 30% at the maximum concentration evaluated),D (showed less than 30% of inhibitory activity in 10 nM-addition zone and showed 30% or more of inhibitory activity in 100 nM-addition zone),
412 ([Phe(4-F)]G[NMeF]G[3Pal(6-Ph)]GDE[Cha][Aad][NMePhe(4-Me)]L[Phe(4-COOH)]C-NH2; not fully specified) [compound 412],ND (the inhibitory activity was less than 30% at the maximum concentration evaluated),D (showed less than 30% of inhibitory activity in 10 nM-addition zone and showed 30% or more of inhibitory activity in 100 nM-addition zone),
413 ([Phe(4-F)]G[NMeF]G[3Pal(6-Ph)]GDE[Cha][Aad][NMePhe(4-Me)]L[Phe(4-COOH)]C[βAla][dE]) [compound 413],ND (the inhibitory activity was less than 30% at the maximum concentration evaluated),D (showed less than 30% of inhibitory activity in 10 nM-addition zone and showed 30% or more of inhibitory activity in 100 nM-addition zone),
414 (FG[NMeF]G[3Pal(6-Ph)]GDE[Cha][Aad][NMeF]L[cisHyp]C-NH2; not fully specified) [compound 414],ND (the inhibitory activity was less than 30% at the maximum concentration evaluated),D (showed less than 30% of inhibitory activity in 10 nM-addition zone and showed 30% or more of inhibitory activity in 100 nM-addition zone),
"415 (FGFGAGDEAEFLPCAE; not fully specified; MOD_RES 3 F represents Methyl-L-phenylalanine(MeF); MOD_RES 5 A represents (S)-2-Amino-3-(6-phenylpyridin-3-yl)propanoic acid(3Py6Ph); MOD_RES 9 A represents (S)-2-Amino-3-cyclohexylpropanoic acid(Cha); MOD_RES 10 E represents L-2-Amino adipic acid (Hgl); MOD_RES 11 F represents Methyl-L-phenylalanine(MeF); MOD_RES 13 P represents (2S,4S)-4-Hydroxypyrrolidine-2-carboxylic acid(P4Sh); MOD_RES 15 A) [compound 415]",ND (the inhibitory activity was less than 30% at the maximum concentration evaluated),D (showed less than 30% of inhibitory activity in 10 nM-addition zone and showed 30% or more of inhibitory activity in 100 nM-addition zone),
416 ([Phe(4-F)]G[NMeF]G[3Pal(6-Ph)]GDE[Cha][Aad][NMePhe(4-Me)]L[cisHyp]C-NH2; not fully specified) [compound 416],ND (the inhibitory activity was less than 30% at the maximum concentration evaluated),D (showed less than 30% of inhibitory activity in 10 nM-addition zone and showed 30% or more of inhibitory activity in 100 nM-addition zone),
418 (FG[NMeF]G[3Pal(6-Ph)]GDE[Cha][Aad][NMeF]L[Abu]C-NH2; not fully specified) [compound 418],ND (the inhibitory activity was less than 30% at the maximum concentration evaluated),D (showed less than 30% of inhibitory activity in 10 nM-addition zone and showed 30% or more of inhibitory activity in 100 nM-addition zone),
419 (FG[NMeF]G[3Pal(6-Ph)]GDE[Cha][Aad][NMeF]L[Abu]C[βAla][dE]) [compound 419],ND (the inhibitory activity was less than 30% at the maximum concentration evaluated),D (showed less than 30% of inhibitory activity in 10 nM-addition zone and showed 30% or more of inhibitory activity in 100 nM-addition zone),
"420 ([Phe(4-F)]G[NMeF]G[3Pal(6-Ph)]GDE[Cha][Aad][NMePhe(4-Me)]L[Abu]C-NH2; also: cyclic peptide, ring closure not given here) [compound 420]",ND (the inhibitory activity was less than 30% at the maximum concentration evaluated),D (showed less than 30% of inhibitory activity in 10 nM-addition zone and showed 30% or more of inhibitory activity in 100 nM-addition zone),
"421 ([Phe(4-F)]G[NMeF]G[3Pal(6-Ph)]GDE[Cha][Aad][NMePhe(4-Me)]L[Abu]C[βAla][dE]; also: cyclic peptide, ring closure not given here) [compound 421]",ND (the inhibitory activity was less than 30% at the maximum concentration evaluated),D (showed less than 30% of inhibitory activity in 10 nM-addition zone and showed 30% or more of inhibitory activity in 100 nM-addition zone),
CC(C)[C@@H]1NC(=O)[C@H](Cc2ccc(C(=O)O)cc2)NC(=O)[C@H](C(C)C)NC(=O)[C@H](CCCNC(=N)N)NC(=O)[C@H](CCC(=O)O)NC(=O)CSC[C@@H](C(=O)NCC(N)=O)NC(=O)[C@H](CO)NC(=O)[C@H](Cc2ccc(C(=O)O)cc2)NC(=O)[C@H](Cc2ccc(C(=O)O)cc2)NC(=O)[C@H](Cc2ccc(O)cc2)NC(=O)[C@H](Cc2ccc(-c3ccccc3)cc2)NC(=O)[C@@H]2C[C@@H](O)CN2C(=O)[C@H](Cc2ccc(O)cc2)NC(=O)[C@H](CCCCNC(=O)N2CCN(CC(=O)O)CC2)NC(=O)[C@H](Cc2ccc(-c3ccccc3)nc2)NC(=O)[C@H](CCCNC(=N)N)NC(=O)[C@H](CCCCNC(=O)N2CCN(CC(=O)O)CC2)NC1=O [Peptide 277] ({CH2CO}-ERV[Phe(4-COOH)]VK([CO-Piperazinyl(4-CH2COOH)])R[3Pal(6-Ph)]K([CO-Piperazinyl(4-CH2COOH)])Y[Hyp][Bip]Y[Phe(4-COOH)][Phe(4-COOH)]SCG-NH2; thioether N-17),,,"IC50 (BMP4; Table 2-2, 277 from 20 nM (1/3), 417 from 300 nM (1/4), ND = IC50 was not calculated): 0.073 nM; IC50 (BMP7; Table 2-2, 277 from 1,000 nM (1/3), 417 from 300 nM (1/4)): 455 nM"
CC(C)C[C@@H]1NC(=O)[C@H](Cc2ccc(O)cc2)NC(=O)[C@H](C(C)C)NC(=O)[C@H](CCCNC(=N)N)NC(=O)[C@H](CCCCC(=O)O)NC(=O)CSC[C@@H](C(=O)NCCC(=O)NC(CCC(=O)O)C(=O)O)CC(=O)[C@H](CO)NC(=O)[C@H](Cc2ccc(C(=O)O)cc2)NC(=O)[C@H](Cc2ccc(C(=O)O)cc2)NC(=O)[C@H](Cc2ccc(O)cc2)NC(=O)[C@H](Cc2ccc(-c3ccccc3)cc2)NC(=O)[C@H](C(C)C)NC(=O)[C@H](Cc2ccc(O)cc2)NC(=O)[C@@H]2CCCN2C(=O)[C@H](Cc2ccc(-c3ccccc3)nc2)NC(=O)[C@H](CCCNC(=N)CN)NC(=O)[C@H](CC(=O)O)NC1=O (some centres unmarked) [SEQ ID No. 84] ([Nle(6-COOH)]RVYLD[X1][3Pal(6-Ph)]PYV[Bip]Y[Phe(4-COOH)][Phe(4-COOH)]; linker N-C via X7),,,"aLISA BMP4 (BMP4; inhibition of SMAD1 phosphorylation by BMP4 stimulus, A549 cells, peptides of Synthesis 2, classes A-C, ND): A (showed an inhibitory activity of 50% or more in a zone to which the peptide was added to in an amount of 0.2 nM); aLISA BMP7 (BMP7; inhibition of SMAD1 phosphorylation by BMP7 stimulus, A549 cells, peptides of Synthesis 2, classes A-D, ND): C (showed less than 50% of inhibitory activity in 10 nM-addition zone and showed 50% or more of inhibitory activity in 100 nM-addition zone)"
